Experimental data taken from patent publication US20240175877A1 (GENERAL HOSPITAL, published 2024).

Experiments:
Ara h 2 [1] = biological target: T1, Ara h 2 (peanut, UniProt Q6PSU2 23-172, 4-hydroxyproline at positions 67, 74, and 86; biotinylated in the BLI assays); assay: SPR, Biacore 3000
T1 construct: BLI: biotinylated (native) Ara h 2 on streptavidin sensors; also called conglutin-7; peanut allergen
T1 sequence: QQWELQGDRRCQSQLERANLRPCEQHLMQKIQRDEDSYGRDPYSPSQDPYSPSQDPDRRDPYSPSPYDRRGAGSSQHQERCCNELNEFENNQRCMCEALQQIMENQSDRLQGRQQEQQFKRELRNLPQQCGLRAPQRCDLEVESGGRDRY
Method: Calculated equilibrium dissociative constants (K)) for antigen binding to anti-Ara h 2 antibodies was determined using a real-time surface plasmon resonance biosensor (Biacore 3000) assay.

Ara h 2 [2] = biological target: T1, Ara h 2; assay: epitope bin summary
Ara h 2 [3] = biological target: T1, Ara h 2; assay: epitope summary
Peptide_009 = biological target: T2, Peptide_009 (peanut); assay: peptide microarray
T2 construct: also called peptide 9
T2 peptide: WELQGDRRCQSQLER
Method: (§1) The peptide mapping using microarrays was performed with 40 antibody samples diluted 1:1000 in blocking buffer (see below). Sample dilutions were incubated for 1 hour at 30° C. on multiwell microarray slides. The slides contained 21 individual mini-arrays (1 mini-array per sample dilution).
(§2) Subsequent to sample incubation, secondary fluorescently labeled anti-human-IgG antibody at 1 μg/ml was added into the corresponding wells and left to react for 1 hour.
(§3) Additional control incubations applying the secondary antibody only was performed in parallel on the microarray slides to assess false-positive binding to peptides.

Peptide_010 = biological target: T3, Peptide_010 (peanut); assay: peptide microarray
T3 construct: also called peptide 10
T3 peptide: QGDRRCQSQLERANL
Method: as §1, §2, §3

Peptide_011 = biological target: T4, Peptide_011 (peanut); assay: peptide microarray
T4 construct: also called peptide 11
T4 peptide: RRCQSQLERANLRPC
Method: as §1, §2, §3

Peptide_012 = biological target: T5, Peptide_012 (peanut); assay: peptide microarray
T5 construct: also called peptide 12
T5 peptide: QSQLERANLRPCEQH
Method: as §1, §2, §3

B1: 13BU2T3 (antibody, IgG1, V domains shown)
VH: GGGVVQPGTSLRLSCVASGFTFRDYSMHWVRQAPGKGLEWVSFIRFDGTTKDYRDSVKGRFIISRDDSKNTLYLQMTSLRVEDTALYYCAKDNGWRAFDHWGQGALVTVSS
VL: VMTQSPLSLPVTPGEAASISCRSSQSLLHRNGYIYLDWYLQRPGQSPQLLISFVSKRASGAPDRFSGSGSGTDFTLTISRVEAEDFGVYFCMQALETPWTFGPGTKLEIK
notes: recombinant IgG1
B1 showed a Kd (Ara h 2 [1]) of 0.193 nM.

B2: 11FUP1A2 (antibody, IgG1, V domains shown)
VH: ESGGAVVQPGGSLRLSCAASGFTVEDYTIHWVRQVPGKGLEWISLISWDGDRTAYTDSVKGRFTISRDNIKNSLYLLMNSLRTEDTALYYCVKDNGWRSFAYWGQGILVTVST
VL: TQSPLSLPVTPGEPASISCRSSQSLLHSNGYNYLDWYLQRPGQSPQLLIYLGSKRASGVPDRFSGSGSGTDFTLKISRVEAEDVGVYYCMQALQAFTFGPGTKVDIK
notes: recombinant IgG1
B2: binds (Ara h 2 [2]).

B3: 22BU2S4 (antibody, IgG1, V domains shown)
VH: RCKLQESGPGLVKPSESLSLTCNVSGMSISSYYWSWIRQPAGKGLEWIGRIFTTGSTKDNPSLKSRVTMSVDTSRNQFSLTLTSVTAADTAVYYCARLRRVVVPRVSWYFDLWGHGTLVTVSS
VL: TQSPSSLSASVGDRVTITCQASQDISKSLNWYHQKPGKAPTVLIYDASNLETGVPSRFSGSGSGTEFTFTISSLQSEDFGTYYCQQYDNVPMYTFGQGTKVETK
notes: recombinant IgG1
B3: binds (Ara h 2 [3]).

B4: 15FU1P1A3 (antibody, V domains shown)
VH: QSGAEVKKPGASVKISCKASGYTFTTYAMHWVRQAPGQRLEWMGGINAGNGNPKYSEKFQDRVTITRDTSATTAYMELSSLRSEDTAVYYCARDAAGTRGNWLDPWGQGTLVTVSS
VL: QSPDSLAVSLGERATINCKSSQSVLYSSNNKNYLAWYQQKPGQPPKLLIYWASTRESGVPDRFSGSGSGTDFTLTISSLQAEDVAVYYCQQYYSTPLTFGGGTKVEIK
notes: recombinant IgG1
B4: binds (Ara h 2 [2]).

B5: 13BU2T5 (antibody, V domains shown)
VH: QVQLQESGPGLVKPSETLSLTCTVSGGSMSSYYWGWIRQPAGRGLEWIGRIFTTGSTIYNASLNSRVSMSVDTSKNQFSLKLTSVTAADTALYFCVRDRRGRSHDSNWYWYFDLWGRGTLVTVSS
VL: RVIITCRASQTLSRNLNWYQQKPGEAPKLLIYGASTLQSGVPSRFTGSGSGTDFTLIISGLQPEDFATYYCQQSDNTPRTFGQGT
Work on B5 yielded a Kd (Ara h 2 [1]) of 0.112 nM.

B6: 27FU1P3A4 (antibody, IgG1, V domains shown)
VH: ESGGGLVQPGGSLRLSCVASGFPFDDFVFAWVRQAPGGGLEWVSAISSRRTNTFYADSVKGRFTISRDNTRKTVNLQMNSLRGEDTAVYYCAKGETRYLEWIIQSSGFDYWGPGTLVAVSS
VL: QSPSSLSASVGERVTITCRANQTISTYLNWYQQKVGKAPKSLIRAASSLESGVPSRFSGSGSGTDFTLTINSLQREDFATYYCQQTYNVPPTFGQGTRVELK
notes: recombinant IgG1
B6: binds (Ara h 2 [2]).

B7: 23BU2P31 (antibody, IgG1, V domains shown)
VH: QVQLQESGPGLVEPSETLSLTCTVSGDPFTSYYWTWIRQPAGKGLEWLGRIFTTGSTSYNPSLKSRVTMSVDTSKSQFSLKLTAVTAADTAVYYCARVRRYCSGGRCYPYFYMDVWGKGTTVIVSS
VL: DIRETQSPSTLSASVGDRVTITCRASESISSWLAWYQQKPGKAPKLLIYEASTLETGVPSRFSGSGSGTEFTLTIRSLQPDDFATYYCQHYNSDSLTFGGGTKVEIK
notes: recombinant IgG1
B7: binds (Ara h 2 [3]).

B8: 89BU7P1B10 (antibody, IgG1, V domains shown)
VH: QESGPGLVKPSETLSLTCTVSGGSIGRHYWSWIRQPPGKGLEWIAYIYDSGSTKYNPSLESRVTISEDTSQNQFSLKLTSVTAADTAIYYCARHNAPYGGNSDDYFEFWGPGTLVTVSS
VL: TQSPSSLSASVGDRVTITCRANETISDYLNWYQGKPGTAPKPLIYAASSLQSGVPSRFSGSGSETYFTLTISSLQPEDFATYYCQQSYSVPLTFGGGTKVESK
notes: recombinant IgG1
B8: binds (Ara h 2 [2]).

B9: 23BU2P34 (antibody, IgG1, V domains shown)
VH: QVQLVESGGLVVQPGGSLRLSCEASGFTFDDYTMHWVRQSPQKGLEWVSLIRWDGSRTEYADSVKGRFTISRDNSKNSLYLQMNTLRADDSAFYFCVKDGGLRYFDSWGQGTLVTVSS
VL: EIVMTQSPLSLPVTPGEPASISCRSSQSLLHSNGIHYLDWYLQKPGQSPQLLIYLGSKRASGVPDRFSGSGSGTDFTLKISRVEAEDVGVYYCMQSLQTFTFGPGTKVDIK
notes: recombinant IgG1
B9: binds (Ara h 2 [3]).

B10: 15FU1P3A1 (antibody, IgG1, V domains shown)
VH: LVQSGAEVKKPGASVKVSCKASGYTFTRYDINWVRQATGQGLEWMGWMNPKSGETGYAQKFHGRVIMSWNTSISTAYMELSSLRSEDTAVYYCTRGVDSGVWGQGTTVTVSS
VL: TQSPDSLAVSLGERATINCKSSQSVLDSSNNKKFLAWFQQKPGQRPKLLIYWASTRESGVPDRFTGSGSGTDFTLTISSLQAEDVAVYYCQQYYSPPHTFGQGTKLEIK
notes: recombinant IgG1
B10: binds (Ara h 2 [2]); binds (Peptide_009); binds (Peptide_010). B10: binds (Peptide_011); binds (Peptide_012).

B11: 14FU2P1D6 (antibody, IgG1, V domains shown)
VH: ESGPGLVKPSETLSLTCTVSGDSISSYYWSWIRQPAGKGLEWIGRIFTSGSTNINPSLKSRVTMSVDTSKNQFSLQLGSVTAADTAIYYCAKHTRDFWSDDSRVHWYFNLWGRGTLVTVSS
VL: QSPGTLSLSPGERATLSCRASQSVSNNFLAWYQQQPGQAPSLLIYGASTRATGIPDRFSGSGSGTDFTLTISRLEPEDFAVYFCQQYDSSPYTFGQGTKLEIK
notes: recombinant IgG1; also called 14FU1P1D6
B11: binds (Ara h 2 [2]).

B12: 6BU4P2B1 (antibody, IgG1, V domains shown)
VH: VESGGGLIQPGRSLRLSCAVSGFSFDDYAMYWVRQVPGKGLEWVSGISWNSGTIEYADSVKGRFTISRDNAKKSLFLEMNSLRSEDTAIYYCAKGTGWELVSALENWGQGTVVTVSS
VL: QSPSSLSASVGNKVTITCRASQTISDYLNWYQQKPGKAPKLLIYAASSLQSAVPSRFAGSGSGTEFTLTISSLQPEDFATYYCQQSYSPPFTFGPGTKVDIK
notes: recombinant IgG1
B12: binds (Ara h 2 [2]).

B13: 23BU2P3 (antibody, IgG1, V domains shown)
VH: QVQLVESGGGLVQPGRSLRLSCAASGFIFADYTMHWVRQSPGKDLEWVSRISWNSGGVEYADSVKGRFTISRDNAKNSLYLQMNSLRVEDTALYYCVKDNGYRAFDLWGLGTMVTVSS
VL: DVVMTQSPVSLPVTPGEPASISCRSSQSLVHSNGYNYLDWYLQKPGQSPQLLIYMGSNRASGVPDRFSGSGSGTDFTLKISRVEAEDVGVYYCMQSLQTWTFGQGTKVEIK
notes: recombinant IgG1
B13: binds (Ara h 2 [3]).

B14: 13BU2T4 (antibody, IgG1, V domains shown)
VH: ESGPRLVKPSETLSLTCIVSGDSISSYYWGWIRQPAGRGLEWIGRIFTSGSTTYNPSLKSRVSMSVETSKNQFSLTLTSVTAADTAVYFCARDRRALSSDGNWYWYFDLWGRGTLVAVSS
VL: TQSPSSLSASVGDRVTITCRASQTITRNLNWYQQKSGEAPKLLIYGASILQSGVPSRFTGSGSGTDFTLTISNLQPEDFASYSCQQSDNTPRTFGQGTKVEIK
notes: recombinant IgG1
With B14 the Kd (Ara h 2 [1]) was 0.00143 nM.

B15: 13FU1P1A4 (antibody, IgG1, V domains shown)
VH: VQLVESGGTLGQPGGSLRLSCTASGFTFNRFAINWVRQAPGKGLEWVAAISGTGAVTYYADSVEGRFSISRENSNNTVFLEMNNLRGEDTAVYFCAKDRTPVTNYYGMDVWGQGTTVTVSS
VL: TQSPSSLSASVGDRVIITCRGSQTIDNYLNWYQQKPGKAPRLLISAASSLQGGVPSRFSGSGYGTDFTLTISSLQPEDFATYYCQQTSSTPYTFGQGTKVEIK
notes: recombinant IgG1
B15: binds (Ara h 2 [2]).
